The results in this text go back to PMC6707742.

For the data set, the target named is coagulation factor IXa (FIXa) (human, UniProt P00740;P00740 47-191;227-461). The data set can be described thus: SPR.
Sequence of coagulation factor IXa (FIXa) (P00740 47-191, chain 1 of 2): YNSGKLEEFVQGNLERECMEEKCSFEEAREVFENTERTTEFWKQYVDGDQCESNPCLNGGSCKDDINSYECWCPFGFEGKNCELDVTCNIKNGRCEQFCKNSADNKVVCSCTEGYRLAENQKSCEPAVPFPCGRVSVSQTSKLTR
Sequence of coagulation factor IXa (FIXa) (P00740 227-461, chain 2 of 2): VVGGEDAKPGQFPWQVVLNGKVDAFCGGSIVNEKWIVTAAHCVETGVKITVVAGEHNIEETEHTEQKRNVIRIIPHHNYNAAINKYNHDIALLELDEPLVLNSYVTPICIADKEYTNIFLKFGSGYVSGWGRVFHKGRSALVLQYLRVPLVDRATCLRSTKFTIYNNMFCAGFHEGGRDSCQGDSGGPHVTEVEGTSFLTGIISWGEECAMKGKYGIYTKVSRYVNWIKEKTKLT

B1: RB006 (XNA)
RNA: GUGGACUAUACCGCGUAAUGCUGCCUCCAC
modifications: 5' 40 kDa branched mPEG; uppercase 2'-F, lowercase 2'-OMe in GUGGAcuAuAccGcGuAAuGcU(G)CcuCCAC; (G) unmodified; 3' inverted dT
In the case of B1, the binding result was “binds”.
